Measurements as given in article PMC9482650, “Quantitative fragmentomics allow affinity mapping of interactomes” (Nature Communications, 2022).

T1: MPP6, Q9NZW5
T1 sequence (Q9NZW5 125-219, limits assumed, looked up): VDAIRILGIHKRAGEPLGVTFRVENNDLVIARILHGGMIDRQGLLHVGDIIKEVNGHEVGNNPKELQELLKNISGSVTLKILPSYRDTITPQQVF

T2: SIPA1L2, Q9P2F8
T2 sequence (Q9P2F8 945-1036, limits assumed, looked up): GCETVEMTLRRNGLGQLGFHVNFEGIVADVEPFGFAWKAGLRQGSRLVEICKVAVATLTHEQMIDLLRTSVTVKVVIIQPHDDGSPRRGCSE

T3: SNTA1, Q13424
T3 sequence (Q13424 82-180, limits assumed, looked up): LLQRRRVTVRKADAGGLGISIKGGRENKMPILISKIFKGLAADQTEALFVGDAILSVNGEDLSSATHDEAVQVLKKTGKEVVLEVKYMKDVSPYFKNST

T4: NHERF3_4, Q5T2W1
T4 sequence (Q5T2W1 373-468, limits assumed, looked up): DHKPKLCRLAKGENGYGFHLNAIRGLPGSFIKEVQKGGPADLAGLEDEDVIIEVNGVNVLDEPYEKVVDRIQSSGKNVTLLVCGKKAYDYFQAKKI

T5: MPDZ_5, O75970
T5 sequence (O75970 695-796, limits assumed, looked up): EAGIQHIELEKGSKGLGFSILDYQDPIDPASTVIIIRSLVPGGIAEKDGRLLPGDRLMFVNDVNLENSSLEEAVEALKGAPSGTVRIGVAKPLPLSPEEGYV

T6: DLG3_1, Q92796
T6 sequence (Q92796 125-227, limits assumed, looked up): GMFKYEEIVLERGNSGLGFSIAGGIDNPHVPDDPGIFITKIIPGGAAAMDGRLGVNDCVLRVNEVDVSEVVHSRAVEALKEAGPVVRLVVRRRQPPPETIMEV

T7: PDZD2_2, O15018
T7 sequence (O15018 329-429, limits assumed, looked up): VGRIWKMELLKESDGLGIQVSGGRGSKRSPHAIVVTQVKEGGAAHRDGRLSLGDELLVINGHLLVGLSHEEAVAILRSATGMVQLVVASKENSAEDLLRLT

T8: DFNB31_3, Q9P202
T8 sequence (Q9P202 811-907, limits assumed, looked up): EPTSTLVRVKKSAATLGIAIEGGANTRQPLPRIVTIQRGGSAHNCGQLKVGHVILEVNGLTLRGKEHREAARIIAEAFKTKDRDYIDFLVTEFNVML

T9: NHERF3_1, Q5T2W1
T9 sequence (Q5T2W1 4-100, limits assumed, looked up): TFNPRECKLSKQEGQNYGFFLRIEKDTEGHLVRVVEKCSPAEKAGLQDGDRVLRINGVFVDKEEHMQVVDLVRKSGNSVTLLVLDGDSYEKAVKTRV

T10: PCLO, Q9Y6V0
T10 sequence (Q9Y6V0 4491-4600, limits assumed, looked up): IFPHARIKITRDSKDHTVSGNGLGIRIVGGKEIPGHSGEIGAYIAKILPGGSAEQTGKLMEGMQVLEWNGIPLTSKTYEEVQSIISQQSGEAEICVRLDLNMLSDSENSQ

T11: LIN7A, O14910
T11 sequence (O14910 103-200, limits assumed, looked up): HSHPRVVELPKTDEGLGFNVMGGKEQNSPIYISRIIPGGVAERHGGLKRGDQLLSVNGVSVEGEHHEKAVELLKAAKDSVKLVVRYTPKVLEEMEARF


These binders were tested against GRIP2_5, Q9C0E4 (assay: holdup assay). Settings: plain residues with an end cap or a label only (N-terminal biotin on a linker: ado-ado).
Set-up: key: below the threshold = too weak to quantify, mostly under pKd 3.1 to 4

Chain of GRIP2_5, Q9C0E4 (Q9C0E4 544-642): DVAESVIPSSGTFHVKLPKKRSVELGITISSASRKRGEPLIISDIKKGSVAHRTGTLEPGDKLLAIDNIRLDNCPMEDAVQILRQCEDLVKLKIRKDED

Binder	pKd
QLGSPTADLA [SIPA1, Q96FS4]	below the threshold
RGKNRRQSIF [CDK18, Q07002]	below the threshold

Each binder was assayed against DLG1_3, Q12959 (assay: holdup assay). Settings: plain residues with an end cap or a label only (N-terminal biotin on a linker: ado-ado).
Set-up: key: below the threshold = too weak to quantify, mostly under pKd 3.1 to 4

Binder	pKd
QLGSPTADLA [SIPA1, Q96FS4]	below the threshold
RGKNRRQSIF [CDK18, Q07002]	3.71

The binders below were run against T1, MPP6, Q9NZW5 (assay: holdup assay). Settings: plain residues with an end cap or a label only (N-terminal biotin on a linker: ado-ado).
Set-up: key: below the threshold = too weak to quantify, mostly under pKd 3.1 to 4

Binder	pKd
QLGSPTADLA [SIPA1, Q96FS4]	below the threshold
RGKNRRQSIF [CDK18, Q07002]	below the threshold

What follows are binders tested against T2, SIPA1L2, Q9P2F8 (assay: holdup assay). Settings: plain residues with an end cap or a label only (N-terminal biotin on a linker: ado-ado).
Set-up: key: below the threshold = too weak to quantify, mostly under pKd 3.1 to 4

Binder	pKd
QLGSPTADLA [SIPA1, Q96FS4]	below the threshold
RGKNRRQSIF [CDK18, Q07002]	below the threshold

These binders were tested against GRIP2_6, Q9C0E4 (assay: holdup assay). Settings: plain residues with an end cap or a label only (N-terminal biotin on a linker: ado-ado).
Set-up: key: below the threshold = too weak to quantify, mostly under pKd 3.1 to 4

Chain of GRIP2_6, Q9C0E4 (Q9C0E4 648-740): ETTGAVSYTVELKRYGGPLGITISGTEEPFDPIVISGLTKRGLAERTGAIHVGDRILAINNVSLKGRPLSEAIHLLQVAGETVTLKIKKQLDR

Binder	pKd
QLGSPTADLA [SIPA1, Q96FS4]	below the threshold
RGKNRRQSIF [CDK18, Q07002]	below the threshold

The binders below were run against FRMPD3, Q5JV73 (assay: holdup assay). Settings: plain residues with an end cap or a label only (N-terminal biotin on a linker: ado-ado).
Set-up: key: below the threshold = too weak to quantify, mostly under pKd 3.1 to 4

Chain of FRMPD3, Q5JV73 (Q5JV73 12-100): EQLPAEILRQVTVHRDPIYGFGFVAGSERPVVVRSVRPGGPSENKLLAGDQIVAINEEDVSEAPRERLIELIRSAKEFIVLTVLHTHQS

Binder	pKd
QLGSPTADLA [SIPA1, Q96FS4]	below the threshold
RGKNRRQSIF [CDK18, Q07002]	below the threshold

These binders were tested against T3, SNTA1, Q13424 (assay: holdup assay). Settings: plain residues with an end cap or a label only (N-terminal biotin on a linker: ado-ado).
Set-up: key: below the threshold = too weak to quantify, mostly under pKd 3.1 to 4

Binder	pKd
QLGSPTADLA [SIPA1, Q96FS4]	below the threshold
RGKNRRQSIF [CDK18, Q07002]	below the threshold

What follows are binders tested against T4, NHERF3_4, Q5T2W1 (assay: holdup assay). Settings: plain residues with an end cap or a label only (N-terminal biotin on a linker: ado-ado).
Set-up: key: below the threshold = too weak to quantify, mostly under pKd 3.1 to 4

Binder	pKd
QLGSPTADLA [SIPA1, Q96FS4]	below the threshold
RGKNRRQSIF [CDK18, Q07002]	below the threshold

These binders were tested against T5, MPDZ_5, O75970 (assay: holdup assay). Settings: plain residues with an end cap or a label only (N-terminal biotin on a linker: ado-ado).
Set-up: key: below the threshold = too weak to quantify, mostly under pKd 3.1 to 4

Binder	pKd
QLGSPTADLA [SIPA1, Q96FS4]	below the threshold
RGKNRRQSIF [CDK18, Q07002]	below the threshold

What follows are binders tested against CASK, O14936 (assay: holdup assay). Settings: plain residues with an end cap or a label only (N-terminal biotin on a linker: ado-ado).
Set-up: key: below the threshold = too weak to quantify, mostly under pKd 3.1 to 4

Chain of CASK, O14936 (O14936 487-570): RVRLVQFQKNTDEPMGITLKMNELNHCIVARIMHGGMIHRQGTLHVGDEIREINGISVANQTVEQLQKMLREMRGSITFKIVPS

Binder	pKd
QLGSPTADLA [SIPA1, Q96FS4]	below the threshold
RGKNRRQSIF [CDK18, Q07002]	below the threshold

These binders were tested against GRASP, Q7Z6J2 (assay: holdup assay). Settings: plain residues with an end cap or a label only (N-terminal biotin on a linker: ado-ado).
Set-up: key: below the threshold = too weak to quantify, mostly under pKd 3.1 to 4

Chain of GRASP, Q7Z6J2 (Q7Z6J2 96-193): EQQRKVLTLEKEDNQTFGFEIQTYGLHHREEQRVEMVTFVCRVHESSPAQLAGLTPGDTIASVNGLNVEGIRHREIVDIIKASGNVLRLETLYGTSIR

Binder	pKd
QLGSPTADLA [SIPA1, Q96FS4]	below the threshold
RGKNRRQSIF [CDK18, Q07002]	3.81

Each binder was assayed against T6, DLG3_1, Q92796 (assay: holdup assay). Settings: plain residues with an end cap or a label only (N-terminal biotin on a linker: ado-ado).
Set-up: key: below the threshold = too weak to quantify, mostly under pKd 3.1 to 4

Binder	pKd
QLGSPTADLA [SIPA1, Q96FS4]	below the threshold
RGKNRRQSIF [CDK18, Q07002]	below the threshold

Each binder was assayed against DLG1_2, Q12959 (assay: holdup assay). Settings: plain residues with an end cap or a label only (N-terminal biotin on a linker: ado-ado).
Set-up: key: below the threshold = too weak to quantify, mostly under pKd 3.1 to 4

Binder	pKd
QLGSPTADLA [SIPA1, Q96FS4]	below the threshold
RGKNRRQSIF [CDK18, Q07002]	below the threshold

What follows are binders tested against HTRA2, O43464 (assay: holdup assay). Settings: plain residues with an end cap or a label only (N-terminal biotin on a linker: ado-ado).
Set-up: key: below the threshold = too weak to quantify, mostly under pKd 3.1 to 4

Chain of HTRA2, O43464 (O43464 355-458): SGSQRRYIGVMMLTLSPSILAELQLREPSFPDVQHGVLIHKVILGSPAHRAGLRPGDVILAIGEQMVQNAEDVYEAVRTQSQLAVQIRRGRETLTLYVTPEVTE

Binder	pKd
QLGSPTADLA [SIPA1, Q96FS4]	below the threshold
RGKNRRQSIF [CDK18, Q07002]	below the threshold

The binders below were run against GRID2IP_2, A4D2P6 (assay: holdup assay). Settings: plain residues with an end cap or a label only (N-terminal biotin on a linker: ado-ado).
Set-up: key: below the threshold = too weak to quantify, mostly under pKd 3.1 to 4

Chain of GRID2IP_2, A4D2P6 (A4D2P6 272-370): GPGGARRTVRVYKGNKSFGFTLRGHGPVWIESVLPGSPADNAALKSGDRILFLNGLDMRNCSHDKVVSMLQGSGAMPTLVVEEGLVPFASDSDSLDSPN

Binder	pKd
QLGSPTADLA [SIPA1, Q96FS4]	below the threshold
RGKNRRQSIF [CDK18, Q07002]	below the threshold

Each binder was assayed against T7, PDZD2_2, O15018 (assay: holdup assay). Settings: plain residues with an end cap or a label only (N-terminal biotin on a linker: ado-ado).
Set-up: key: below the threshold = too weak to quantify, mostly under pKd 3.1 to 4

Binder	pKd
QLGSPTADLA [SIPA1, Q96FS4]	below the threshold
RGKNRRQSIF [CDK18, Q07002]	below the threshold

What follows are binders tested against NHERF2_2, Q15599 (assay: holdup assay). Settings: plain residues with an end cap or a label only (N-terminal biotin on a linker: ado-ado).
Set-up: key: below the threshold = too weak to quantify, mostly under pKd 3.1 to 4

Chain of NHERF2_2, Q15599 (Q15599 142-238): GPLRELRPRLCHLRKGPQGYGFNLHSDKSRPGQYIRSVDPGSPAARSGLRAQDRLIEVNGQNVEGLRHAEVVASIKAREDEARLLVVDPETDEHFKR

Binder	pKd
QLGSPTADLA [SIPA1, Q96FS4]	below the threshold
RGKNRRQSIF [CDK18, Q07002]	below the threshold

What follows are binders tested against MAGI2_2, Q86UL8 (assay: holdup assay). Settings: plain residues with an end cap or a label only (N-terminal biotin on a linker: ado-ado).
Set-up: key: below the threshold = too weak to quantify, mostly under pKd 3.1 to 4

Chain of MAGI2_2, Q86UL8 (Q86UL8 410-522): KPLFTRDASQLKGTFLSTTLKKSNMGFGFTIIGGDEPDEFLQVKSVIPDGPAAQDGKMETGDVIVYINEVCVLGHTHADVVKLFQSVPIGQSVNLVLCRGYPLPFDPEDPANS

Binder	pKd
QLGSPTADLA [SIPA1, Q96FS4]	below the threshold
RGKNRRQSIF [CDK18, Q07002]	below the threshold

These binders were tested against MAST1, Q9Y2H9 (assay: holdup assay). Settings: plain residues with an end cap or a label only (N-terminal biotin on a linker: ado-ado).
Set-up: key: below the threshold = too weak to quantify, mostly under pKd 3.1 to 4

Chain of MAST1, Q9Y2H9 (Q9Y2H9 962-1065): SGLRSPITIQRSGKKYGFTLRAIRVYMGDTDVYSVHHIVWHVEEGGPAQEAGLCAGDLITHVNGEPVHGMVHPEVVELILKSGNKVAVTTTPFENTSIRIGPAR

Binder	pKd
QLGSPTADLA [SIPA1, Q96FS4]	3.84
RGKNRRQSIF [CDK18, Q07002]	4.15

These binders were tested against T8, DFNB31_3, Q9P202 (assay: holdup assay). Settings: plain residues with an end cap or a label only (N-terminal biotin on a linker: ado-ado).
Set-up: key: below the threshold = too weak to quantify, mostly under pKd 3.1 to 4

Binder	pKd
QLGSPTADLA [SIPA1, Q96FS4]	3.55
RGKNRRQSIF [CDK18, Q07002]	3.65

What follows are binders tested against T9, NHERF3_1, Q5T2W1 (assay: holdup assay). Settings: plain residues with an end cap or a label only (N-terminal biotin on a linker: ado-ado).
Set-up: key: below the threshold = too weak to quantify, mostly under pKd 3.1 to 4

Binder	pKd
QLGSPTADLA [SIPA1, Q96FS4]	below the threshold
RGKNRRQSIF [CDK18, Q07002]	3.85

These binders were tested against T10, PCLO, Q9Y6V0 (assay: holdup assay). Settings: plain residues with an end cap or a label only (N-terminal biotin on a linker: ado-ado).
Set-up: key: below the threshold = too weak to quantify, mostly under pKd 3.1 to 4

Binder	pKd
QLGSPTADLA [SIPA1, Q96FS4]	below the threshold
RGKNRRQSIF [CDK18, Q07002]	below the threshold

What follows are binders tested against FRMPD2_3, Q68DX3 (assay: holdup assay). Settings: plain residues with an end cap or a label only (N-terminal biotin on a linker: ado-ado).
Set-up: key: below the threshold = too weak to quantify, mostly under pKd 3.1 to 4

Chain of FRMPD2_3, Q68DX3 (Q68DX3 1073-1166): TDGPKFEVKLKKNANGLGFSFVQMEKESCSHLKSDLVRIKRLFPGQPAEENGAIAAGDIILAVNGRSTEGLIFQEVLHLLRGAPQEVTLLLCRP

Binder	pKd
QLGSPTADLA [SIPA1, Q96FS4]	below the threshold
RGKNRRQSIF [CDK18, Q07002]	below the threshold

The binders below were run against DLG1_1, Q12959 (assay: holdup assay). Settings: plain residues with an end cap or a label only (N-terminal biotin on a linker: ado-ado).
Set-up: key: below the threshold = too weak to quantify, mostly under pKd 3.1 to 4

Binder	pKd
QLGSPTADLA [SIPA1, Q96FS4]	below the threshold
RGKNRRQSIF [CDK18, Q07002]	below the threshold

Each binder was assayed against T11, LIN7A, O14910 (assay: holdup assay). Settings: plain residues with an end cap or a label only (N-terminal biotin on a linker: ado-ado).
Set-up: key: below the threshold = too weak to quantify, mostly under pKd 3.1 to 4

Binder	pKd
QLGSPTADLA [SIPA1, Q96FS4]	below the threshold
RGKNRRQSIF [CDK18, Q07002]	below the threshold

What follows are binders tested against GOPC, Q9HD26 (assay: holdup assay). Settings: plain residues with an end cap or a label only (N-terminal biotin on a linker: ado-ado).
Set-up: key: below the threshold = too weak to quantify, mostly under pKd 3.1 to 4

Binder	pKd
QLGSPTADLA [SIPA1, Q96FS4]	below the threshold
RGKNRRQSIF [CDK18, Q07002]	below the threshold

Each binder was assayed against IL16_3, Q14005 (assay: holdup assay). Settings: plain residues with an end cap or a label only (N-terminal biotin on a linker: ado-ado).
Set-up: key: below the threshold = too weak to quantify, mostly under pKd 3.1 to 4

Chain of IL16_3, Q14005 (Q14005 1107-1207): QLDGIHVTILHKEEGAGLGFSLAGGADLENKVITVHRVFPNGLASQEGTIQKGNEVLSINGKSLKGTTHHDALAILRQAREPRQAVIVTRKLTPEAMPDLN

Binder	pKd
QLGSPTADLA [SIPA1, Q96FS4]	below the threshold
RGKNRRQSIF [CDK18, Q07002]	below the threshold
